In the supplement of paper PMC9170038:

System: MS2 coat protein
Test: apparent KD of MS2 coat protein; designed switch direction (-1 OFF switch, 1 ON switch): -1; higher = weaker reporter binding
Procedure, shortened: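 Designed RNA switches with common flanks were made on Illumina chips by stalled E. coli RNA polymerase. Titration with SNAP-549-labelled MS2 coat protein doubled from 0.7 or 1.5 nM up to 3 µM. Apparent KD is each design's median over clusters after curve-fitting normalised fluorescence.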

[1] = input ligand: microRNA oligo, concentration not stated
[2] = Eterna round: R95, input ligand: FMN 200 uM
[3] = Eterna round: R95, input ligand: microRNA oligo, concentration not stated
[4] = Eterna round: R95, input ligand: none

Sequence | apparent KD of MS2 coat protein (input ligand: FMN 200 uM) [nM] | apparent KD of MS2 coat protein (input ligand: none) [nM] | apparent KD of MS2 coat protein [1] [nM] | apparent KD of MS2 coat protein [2] [nM] | apparent KD of MS2 coat protein [3] [nM] | apparent KD of MS2 coat protein [4] [nM]
CAAUACAAGCGAAGAUCCUACAUGAGGAUCACCCAUGUGCUCGUCUUAAAAGGUACUGAGACGAAAGUCUCGGUACC [Mat - Sensor, turn-off var - Eli Mod - D99] (Eterna round: R97, puzzle: Sensor, turn-off variant 1) | 280 | 367 |  |  |  | 
GUCAGCUCGUGAGGAUAUACAUGCGUGCUUCGGCACGUAUGAUAGAUCACAUGAGGAUCACCCAUGUAGAAGGCACGAGCUGAU [ENG2/4-A2] (Eterna round: R96, puzzle: Exclusion NG 2) | 21.7 | 11.8 | 10.4 |  |  | 
GCACGAAGUGUAGGAUAUCUGUGCGAUUAGCUCAGAGAAGGACACAUGAGGAUCACCCAUGUGUUCCAAUACCCAAAUACGUGC [Eli exng1 - 061] (Eterna round: R96, puzzle: Exclusion NG 1) | 11 | 11.3 | 7.69 |  |  | 
AGUACUAACACGAAAGUGUUAGUACAAUAAGCUAGUGGAACAUGAGGAUCACCCAUGUCCUCAUUAGCUCGUCUUAG [Mat - Sensor v3 - Turn-off var 2 - D35] (puzzle: Sensor v3, turn-off variant 2) |  |  |  | 15.4 | 39.7 | 15.1
UAACAAGCUUUAAGAUCCUACAUGAGGAUCACCCAUGUGCUCGUCUUAUAACGUACUGUGACGAAAGUCACGGUACG [JL TOV1 3.17] (Eterna round: R97, puzzle: Sensor, turn-off variant 1) | 206 | 160 |  |  |  | 
CGUGACUCAGGAUAUCUAUGAUAUCACAUGAGGAUCACCCAUGUCCAGCAAUAGCUGGAGGGAGAAGGGAGUCACG [Fiskers Ex 5 - 41] (puzzle: Exclusion 5) |  |  |  | 84 | 54.3 | 166
CCACUUACUGAGGAUAUUGCAUCACCCGACUGAUAAGAAGGCAGAACAUGAGGAUCACCCAUGUGGGUACUCAC [Bingo-Bango-9] (Eterna round: R97, puzzle: Exclusion 6) | 207 | 155 |  |  |  | 
GAAAAGGUAGGAUAUACGAAAAAAAAGGGUAGAAAAAAAACACAUGAGGAUCACCCAUGUAGAAGGACCAAGAG [salish99_ex2_r3_039] (puzzle: Exclusion 2) |  |  |  | 61.7 | 24.3 | 31.9
CAAAAGGGAGGAUAUACUUGAGGAUCACCCAAGUAAUCGGGUCAAAGAUACCAAGCAGGUAGAAGGCCCAAAUA [Teedleveer] (Eterna round: R97, puzzle: Exclusion 3) | 91.5 | 84.7 |  |  |  | 
CGGUACUGAGGAUAUACAUGAGGAUCACCCAUGUGUUCCAGCUAGCGUACUGGCAUUAGUAGAAGGCGGUGCUG [JL-ex3-3.17 Brourd mod] (puzzle: Exclusion 3) |  |  |  | 31.4 | 12.8 | 14.3
CUCUUGUGAGGAUAUCUCCCAGCGAUUAAUUGGGCAGUCUGAGAGAAGGUACAUGAGGAUCACCCAUGUGAUAG [Eternabot (L1) Solution 73] (Eterna round: R97, puzzle: Exclusion 4) | 69.3 | 61.7 |  |  |  | 
GCAGGAUAAGUUAGGAUAUACCUAUGGAUACAUAGGUAGAAGGGACAUGAGGAUCACCCAUGUGACUCACCUGC [Fiskers BMX 4 - 63] (puzzle: Brourd's mod of Exclusion 4) |  |  |  | 33.5 | 18.4 | 22.4
GUGUAGUGAGGAUAUACAUGAGGAUCACCCAUGUGAAUAAGAUAGAAUAAGAUAAAGUGUAGAAGGUAUAGUGU [Excluse me!!! 17 - Jieux - Exclusion 3] (puzzle: Exclusion 3) |  |  |  |  | 50 | 
CGGUACUGAGGAUAUACAUGAGGAUCACCCAUGUGUUCUAGCUAGCGUACUGGCAUUAGUAGAAGGCGGUGCUG [JL-ex3-3.18 Brourd mod] (puzzle: Exclusion 3) |  |  |  | 28.9 | 15.4 | 17.2
UUGACGGCAGGAUAUACAUGAGGAUCACCCAUGUAAAUUUUUCGUUUAACUUGAAUGUGUAGAAGGGCCCAACC [Ex3 #78] (Eterna round: R97, puzzle: Exclusion 3) | 16.6 | 17.8 |  |  |  | 
UACACCACAUGAGGAUCAAACAUGAGGAUCACCCAUGUAUAGCAAGCUUUUUGCUCGUCUUAUAAAUAUGUGGUGUA [Electric Eye 6 - Jieux - Sensor, turn-off variant 1] (Eterna round: R97, puzzle: Sensor, turn-off variant 1) | 14.9 | 14.9 |  |  |  | 
GCGUGUGCCUAGGAUAUUGGGAAUAUGCAGAAACGAGAAGGAGGCACAUGAGGAUCACCCAUGUGAUGAAAAGA [Teesedri] (puzzle: Exclusion 6) |  |  |  | 16.7 | 45.6 | 61.7

Sequence | apparent KD of MS2 coat protein (input ligand: FMN 200 uM) [nM] | apparent KD of MS2 coat protein (input ligand: none) [nM] | apparent KD of MS2 coat protein [1] [nM] | apparent KD of MS2 coat protein [2] [nM] | apparent KD of MS2 coat protein [3] [nM] | apparent KD of MS2 coat protein [4] [nM]
UUUUAACAUGAGGAUCACCCAUGUGAGGAUAUCGAAAUUUAUAUUAAUAUUAUUUAAUCGAGAAGGCACAUUUU [JMF 44] (puzzle: Exclusion 1) |  |  |  |  | 100 | 
AGUAGAUCUACGCUUGCGUGGAUCUGCAAUGCAGGUGUUACAUGAGGAUCACCCAUGUCCUCAUUUGUUCGUCUUAG [JL turnoff v2 99.09] (puzzle: Sensor v3, turn-off variant 2) |  |  |  | 568 | 322 | 395
GUAGAGUCAGGAUAUACGGGAUCGAAAGAUCGGCGAUCCAUACAUGAGGAUCACCCAUGUAGAAGGGACUCUAC [Omei mod 10 to Eli's favorate candidate (ch.parushev)] (Eterna round: R97, puzzle: Exclusion 2) | 189 | 22.7 |  |  |  | 
GACCUCCCUGUAAGGAUAUCCAUGCAUCAAAGCAUGGAGAAGGUACAUGAGGAUCACCCAUGUCACCCGCGUUA (Eterna round: R97, puzzle: Brourd's mod of Exclusion 4) | 20.7 | 15 |  |  |  | 
UAGAGACAUGAGGAUCACCCAUGUGAGGAUAUAGAGAAAGAUUGCGAGAGGGAGAGGACUAGAAGGCACAGUGA [JR_Exclu1_Sub033] (puzzle: Exclusion 1) |  |  |  | 39.1 | 48.8 | 51.9
GGAUCGAAUGUGAGGAUAUGCUGGUCCUUGGAUCAGCAGAAGGCACAUGAGGAUCACCCAUGUCCAAACGGUCC [Eli bmx4 4.44] (Eterna round: R97, puzzle: Brourd's mod of Exclusion 4) | 352 | 525 |  |  |  | 
UAUACUAGAUAGGAUAUACUAUAUAAAUAAUUCGUAGAAGGAUCUACAUGAGGAUCACCCAUGUUAACAGCAGU [JR_E6_Sub005] (puzzle: Exclusion 6) |  |  |  | 30.7 | 46.6 | 46.6
GGCAUGUAAGGAUAUGCCACCGAGUGCUUUGCGCUCGGUAAGCAGAAGGUACAUGAGGAUCACCCAUGUGAUAA [jl-ex4-4.55 ViennaUCT mod] (Eterna round: R97, puzzle: Exclusion 4) | 132 | 660 |  |  |  | 
UAUGUUUUAGGAUAUUGUACUGCUGACAUGAGGAUCACCCAUGUAUGCUAACUCGGCCGUCGAGAAGGAGAAUAUG [BotMod 30 - Jieux - Exclusion 5] (Eterna round: R97, puzzle: Exclusion 5) | 43.6 | 63.8 |  |  |  | 
UAUUAGCAAGCGAGAUCCCACAUGAGGAUCACCCAUGUGCUCGUCUUAUAAGGUACUGUGACGAAAGUCACGGUACC [Sensor 3, v1 - 95 v5] (Eterna round: R97, puzzle: Sensor, turn-off variant 1) | 16.8 | 15.3 |  |  |  | 
UCGCUGCGAGGAUAUACAUGAGGAUCACCCAUGUACGGGUCCGGGUCUUAGUUGAUUGGUAGAAGGCGCAGUGA [JL Laongeedie mod 11] (puzzle: Exclusion 3) |  |  |  |  | 84.7 | 
AGUUGGCGAGGAUAUACAUGAGGAUCACCCAUGUGAAGAAGAAUAGUGAGGAAGAAAAGUAGAAGGCGCUGACA [Mat - Exclusion 3 - Mod of Salish D37] (Eterna round: R96, puzzle: Exclusion 3) | 412 | 48.5 | 33.6 |  |  | 
UAGCAUUGCCUUUGGUAGUGCUUUACAUGAGGAUCACCCAUGUAGGAUAUGGUAGGCUUUGCUUACCAGAAGGACAUGAUAAUU [JL ENG3 1.04] (Eterna round: R96, puzzle: Exclusion NG 3) |  |  | 52.3 |  |  | 
GAGAAGGUAGGAUAUACGAAUAAAUAGGGUAGUAAUAAUACACAUGAGGAUCACCCAUGUAGAAGGACCAAUAG [Mat - Exclusion 2 - Mod of my Tesla design - D40] (puzzle: Exclusion 2) |  |  |  | 42.5 | 20.8 | 24.9
UAGCUUCCGGUCAGGAUAUACGCUGGCGAAUAGCAGUAGAAGGGACAUGAGGAUCACCCAUGUGGGUUCAAAGA [Zabetima] (puzzle: Brourd's mod of Exclusion 4) |  |  |  | 91 | 39.4 | 44.2
ACAUGAGGAUCACCCAUGUACACGUAAUGGCUCAUGUAGAGUGAGGAUAUGUGAGACGAACGAGCACAGAAGGCACAAGACUGG [Deportation 11 - Jieux - Exclusion NG 3] (Eterna round: R96, puzzle: Exclusion NG 3) | 36.1 | 45.4 | 21.8 |  |  | 
